Laboratory results published in patent USRE47972.

Biological target: trypsin
Assay: cell-based or functional assay

Specific Inh. Activity [TIU/mg IαIp] | Substance
1410 | Highly purified human IαIp (mixture of inter-alpha inhibitor IαI and pre-alpha inhibitor PαI) purified from cryo-poor plasma (from UniProt P02760 206-352; P19827 35-672; P19823 55-702; Q06033 35-651)
1410 | Human IαIp (mixture of inter-alpha inhibitor IαI and pre-alpha inhibitor PαI) purified from cryoprecipitate, a side-fraction of fVIII production (from UniProt P02760 206-352; P19827 35-672; P19823 55-702; Q06033 35-651)
